The target of the assay is microtubules (MTs) formed in Xenopus egg extracts (Xenopus laevis (endogenous in egg extract)). Briefly: TIRF microscopy of GFP-TPX2 on microtubules; endogenous TPX2 immunodepleted and replaced with 20-30 nM (25 nM) GFP-TPX2 in Xenopus egg extract; 10 µM RanQ69L, 0.5 mM vanadate; silane-passivated coverslips; rise of TPX2 intensity at single pixels of individual de novo MTs before the first branch, normalised by the fluorescence of a single GFP-TPX2 molecule.

Take “Full-length TPX2 with N-terminal Strep II-6xHis-GFP-TEV site tags (natural protein)”: the binding rate (molecules μm^−1 s^−1) turned out to be 0.4.

Source of the values: PMC6519983.
